± gives the uncertainty stated by the source.
B1: Calcium-binding protein 2, residues 155 to 219; numbered along this chain, Q9NPB3 (parent)
chain: RELRDAFREFDTNGDGRISVGELRAALKALLGERLSQREVDEILQDVDLNGDGLVDFEEFVRMMS

Variants of: B1
Assay: abundance fitness (aPCA) (normalised: wild type 0, dead -1); higher = more abundant; growth selection in yeast, the domain comes from the species named
Conditions: Homo sapiens

In order of rising abundance fitness:
1. G16P  -1.19 ± 0.13
2. D11H  -1.17 ± 0.26
3. D11M  -1.17 ± 0.21
4. G16V  -1.14 ± 0.094
5. F10D  -1.13 ± 0.17
6. F7K  -1.12 ± 0.12
7. F7G  -1.03 ± 0.058
8. F7R  -0.995 ± 0.062
9. D11P  -0.992 ± 0.13
10. F7V  -0.891 ± 0.078
11. F10P  -0.864 ± 0.079
12. F7E  -0.841 ± 0.1
13. V55R  -0.78 ± 0.046
14. D11T  -0.769 ± 0.099
15. G16Y  -0.743 ± 0.33
16. F7T  -0.713 ± 0.096
17. V55K  -0.691 ± 0.087
18. G14V  -0.672 ± 0.067
19. G16L  -0.669 ± 0.064
20. F7I  -0.644 ± 0.12
21. N50W  -0.627 ± 0.067
22. R34W  -0.558 ± 0.22
23. M64P  -0.555 ± 0.37
24. D56W  -0.531 ± 0.089
25. D48G  -0.529 ± 0.081
26. G16C  -0.527 ± 0.11
27. R4L  -0.526 ± 0.069
28. A29P  -0.497 ± 0.089
29. D46R  -0.493 ± 0.066
30. N50I  -0.488 ± 0.12
31. L3S  -0.473 ± 0.13
32. L23Q  -0.468 ± 0.12
33. A26W  -0.454 ± 0.097
34. N50Y  -0.419 ± 0.16
35. F10G  -0.417 ± 0.081
36. V55H  -0.382 ± 0.07
37. A26R  -0.371 ± 0.069
38. D46H  -0.366 ± 0.16
39. G16A  -0.332 ± 0.046
40. V61M  -0.325 ± 0.22
41. D46F  -0.321 ± 0.11
42. R4F  -0.321 ± 0.16
43. V47M  -0.303 ± 0.088
44. L3A  -0.302 ± 0.064
45. E42P  -0.301 ± 0.098
46. L54P  -0.291 ± 0.063
47. L54R  -0.283 ± 0.046
48. E59N  -0.282 ± 0.22
49. L3T  -0.281 ± 0.081
50. R4S  -0.276 ± 0.083
51. L3E  -0.274 ± 0.12
52. E42Q  -0.272 ± 0.1
53. G14C  -0.264 ± 0.18
54. G16S  -0.261 ± 0.055
55. E59W  -0.259 ± 0.081
56. F7Y  -0.259 ± 0.12
57. R4G  -0.255 ± 0.086
58. M64D  -0.255 ± 0.081
59. A26P  -0.251 ± 0.07
60. V47C  -0.241 ± 0.088
61. R62H  -0.233 ± 0.12
62. D48P  -0.231 ± 0.086
63. A26H  -0.228 ± 0.15
64. G14L  -0.226 ± 0.079
65. L54I  -0.223 ± 0.2
66. A26S  -0.214 ± 0.072
67. L54A  -0.211 ± 0.057
68. R62L  -0.21 ± 0.075
69. R4Q  -0.21 ± 0.11
70. A29F  -0.208 ± 0.12
71. E42I  -0.204 ± 0.11
72. R1G  -0.204 ± 0.11
73. D56L  -0.201 ± 0.088
74. D56Y  -0.198 ± 0.19
75. G21K  -0.193 ± 0.077
76. V55W  -0.192 ± 0.053
77. V55A  -0.189 ± 0.057
78. G14D  -0.188 ± 0.17
79. R62T  -0.182 ± 0.089
80. R34L  -0.177 ± 0.06
81. E42L  -0.175 ± 0.066
82. E59H  -0.164 ± 0.19
83. A25Y  -0.159 ± 0.16
84. D46E  -0.155 ± 0.078
85. D56Q  -0.153 ± 0.086
86. D46Q  -0.152 ± 0.089
87. L3V  -0.15 ± 0.058
88. D41R  -0.15 ± 0.062
89. A29H  -0.149 ± 0.33
90. D46K  -0.148 ± 0.13
91. F10S  -0.148 ± 0.074
92. E59F  -0.146 ± 0.11
93. R62Q  -0.145 ± 0.069
94. F10T  -0.144 ± 0.096
95. R4M  -0.144 ± 0.095
96. V47A  -0.143 ± 0.055
97. F10C  -0.143 ± 0.079
98. L3Y  -0.139 ± 0.17
99. V47E  -0.137 ± 0.056
100. R62C  -0.124 ± 0.097
101. V61W  -0.114 ± 0.11
102. A25N  -0.109 ± 0.32
103. D41T  -0.104 ± 0.056
104. F10R  -0.1 ± 0.059
105. A25F  -0.093 ± 0.25
106. G21M  -0.09 ± 0.093
107. E59S  -0.075 ± 0.064
108. R4H  -0.074 ± 0.1
109. E59A  -0.072 ± 0.064
110. L54E  -0.07 ± 0.056
111. G21N  -0.064 ± 0.1
112. M63C  -0.058 ± 0.11
113. R4D  -0.052 ± 0.15
114. M63A  -0.048 ± 0.094
115. F10V  -0.048 ± 0.065
116. M64Q  -0.041 ± 0.19
117. M63Q  -0.035 ± 0.076
118. A25T  -0.035 ± 0.11
119. R4N  -0.027 ± 0.12
120. G21S  -0.026 ± 0.066
121. M64L  -0.025 ± 0.05
122. V55C  -0.023 ± 0.041
123. A29S  -0.02 ± 0.089
124. G14R  -0.018 ± 0.058
125. D48L  -0.015 ± 0.066
126. D56H  -0.015 ± 0.14
127. R1T  -0.007 ± 0.19
128. G21A  0 ± 0.055
129. D56A  0.002 ± 0.082
130. D56P  0.009 ± 0.092
131. V61D  0.009 ± 0.17
132. A25G  0.01 ± 0.061
133. V61E  0.012 ± 0.17
134. V47Q  0.013 ± 0.1
135. M64T  0.015 ± 0.12
136. R34T  0.018 ± 0.062
137. D56T  0.019 ± 0.069
138. N50K  0.028 ± 0.068
139. D41Y  0.03 ± 0.2
140. N50C  0.032 ± 0.12
141. D46T  0.042 ± 0.1
142. R34A  0.045 ± 0.084
143. A29R  0.047 ± 0.054
144. D48M  0.05 ± 0.11
145. M63H  0.05 ± 0.18
146. R34C  0.056 ± 0.1
147. M63N  0.057 ± 0.21
148. A29K  0.066 ± 0.14
149. R1N  0.078 ± 0.084
150. E59V  0.083 ± 0.074
151. A25S  0.084 ± 0.096
152. E59T  0.088 ± 0.096
153. R34Q  0.088 ± 0.11
154. F10H  0.09 ± 0.065
155. E22G  0.093 ± 0.11
156. D48S  0.109 ± 0.087
157. M64R  0.109 ± 0.053
158. A26M  0.111 ± 0.11
159. R1K  0.12 ± 0.37
160. D48E  0.131 ± 0.1
161. A25L  0.139 ± 0.062
162. R34E  0.14 ± 0.076
163. G21D  0.141 ± 0.089
164. F10Q  0.156 ± 0.083
165. M64V  0.157 ± 0.095
166. D48R  0.185 ± 0.05
167. R34K  0.187 ± 0.092

Source: the Human Domainome abundance scans (Beltran et al. 2025)
